Measured values taken from publication PMC10535226, “Rapid SERS Detection of Botulinum Neurotoxin Type A”.
Like-named read-outs stand apart in the source and are kept apart here.

Key:
[1] = target: T1, Botulinum neurotoxin type A (Xeomin) (Clostridium botulinum serotype A, UniProt P0DPI1 2-1296); test: BLI; details: protein: commercial
[2] = target: Botulinum neurotoxin type A (Xeomin) (Clostridium botulinum serotype A, UniProt P0DPI1 2-1296); test: SERS aptasensor; details: protein: commercial; label: 3' TAMRA
[3] = target: T1, Botulinum neurotoxin type A (Xeomin)

B1: Apt_2.22 (structured_DNA)
DNA: ATACCAGCTTATTCAATTGACATGACTGGGATTTTTGGCGAAATCGAAGGAAGCGGAGAGATAGTAAGTGCAATCT
B1 showed a Kd [1] of 7 ± 4 nM.

B2: Apt_2.22_mod (structured_DNA)
DNA: B1 DNA
modifications: 5' SH-(CH2)6
B2: binds [2].

B3: SH-H8-TAMRA (ssDNA)
DNA: AGTGCGGTGAGCCGTCGGACATACAAATAC
B3: no binding [3].
